From a protein production outcome set (Wang et al. 2014) come the findings set out here.

A short description of this data set: label from the status in PepcDB records.
“MVASAPASAGTKGVIRQVIGPVLDVEFPAGKLPKIYNALRVETKNTAGQDVALTAEVQQLLGDHRVRAVAMSGTDGLVRGMEIADTGAPISVPVGEATLGRIFNVLGEPVDEQGPVNASATAPIHRDAPNLTELETKPKVFETGIKVIDLLAPYRQGGKVGLFGGAGVGKTVLIQELINNIAKEHGGVSVFGGVGERTREGNDLYEEFKESGVINADDLSKSKVALCYGQMNEPPGARMRVGLSALTMAEHFRDVNKQDVLLFVDNIFRFVQAGSEVSALLGRMPSAVGYQPTLGTDVGALQERVASTVEGSITSIQAVYVPADDLTDPAPATTFAHLDATTVLNRALASKGIYPAVDPLDSTSTMLQPAVVGDEHYRTARLVQSTLQRYKELQDIIAILGLDELSEDDRQTVDRARKVEKFLSQPFFVAEIFTGMPGKYVKLEETIAGFNQILAGELDHLPEAAFYLVGSIEEAKAKAEKIAAETK”: the protein production entry is “failed”.
Regarding “MVCVDFIDQKVYSEAEGLFVSDLDLGIKGLIRARYPFALDSDFISYGNLSHYCMNYLDEIVQRANQKNEKIKYNVTTLMKEEEKPFNVEERLNKQATIGQRIADDVARFGGSWTFIIVFVSIMAIWMLVNIMKPFGIQFDPYPFILLNLALSTIAAIQAPLIMMSQNRAADYDRLQARNDFNVNKTSELEIRLLHEKIDHMVQQDQFELLEIQKLQTEMLVSLGNQLAQLKQLQK”, the protein production entry is given as “failed”.
The entry for “MVDDRFNHFRIINRVLEKGMPVLTPVSVAIGVWMAERFSNFASAVPWLFAVISFVGALGLTLVDIRERLRRPQAMIVTLFILQILMPLIALLVGMWLFDPMTRSGLVLAFSIPTGVMSLMWVTIYHGNKSFALAVVFIHTLLSPFFIPWTLRWFIGTDIPFDVGGMVWGLLWMIVIPSLLAISATRYTPKVVPMMKDVLSPIAKLHLFLIIMINSSVAAPFIRSWDLSLLYIILTVLAIALSGYGLGYVGARLLKLDESMRISMVYTCGMRNIGAGAALAVAYFPPPVMVPIVAAILFQQVLAAALGKWMRTGRTDQSLIERGTT” is “failed”.
Regarding “MVDGEVEILRGYELRLLRCTVSFPQTGSPLESQPLDGTQSGTHPHDSLITSLLSSIEAGDYLGALSSDATKLILGDSELNLVDTVDSAEQVYSELLDKVESFVVNDSSDEIDKARRAVLVMCLAIATALWFTRCNLTGSTEGSTKCSLPLRVSESKELVEWENWAKIQLMSVGSDLLGKFSNLQHLVFARLLLFKLKDLLFEITSTETFEVRSISWWLVRVLLIHQRVLQERSSSLFEMLQVYMAEAIDHFGELEKVKSYWGANLLEDEASSITSTIHLEACVLQYIYGRIDPSRLQLESAKAAASLEFSVTGALGFRTIHQVDPKAQMVLVANTSSSNGDVRLASEKADVGPYEAWGGEAPEVYMTPKLVNNESEAGKDSVPLKPVEQALILAQCLLIERGSRHDEMQRWDMAPYIEAIDSQKSTYFVLRCFCDLLRVRWESTRGRTKGRALEMMDKLVGAINKSDPGVSNRIPLCYAVHLPTIPALRKEYGELLVSCGLVGEAITIFESLELWDNLIYCYCLLGKKSAAVDLINARLLERPNDPRLWCSLGDVTINDSCYEKALEVSNDKSVRAKRALARSAYNRGDFEKSKMLWEAAMALNSLYPDGWFALGAAALKARDVQKALDAFTFAVQLDPDNGEAWNNIACLHMIKKKSKESFIAFKEALKFKRDSWQMWENFSHVAMDVGNIDQAFEAIQQILKMSKNKRVDVVLLDRIMTELEKRNSACKSSSSSTETEASSDESTETKPCTATPAETQRQLELLGKVIQQIVKTESTAEIWGLYARWSRIKGDLTVCSEALLKQVRSYQGSEVWKDKERFKKFARASLELCRVYMEISASIGSKRELFTAEMHLKNTIKQATVSFLDSEELKELESCLEEVRNVMQKSEEEYRDTKT”, the protein production result is “failed”.
The entry for “MVDTNHKIAFCIDSDGCAMDTMTYKHQLFFGPIAADIFGISEQERTSFLKEWDRVNLYSRTRGVNRFVGLVMGLEFAGVEHIDKLKEWVETTDSLSNNSLELALANDFSRDLEKALEWSNEVNRQIKNYEGDSLAFSGVLESLERLSQFGNVYVVSSANKEAVWQEWEEQGLLKYVDDIYCQDRGKKEDVIATLIASGYCRETILMVGDSLGDLAAAEQNGIAFYPVLVGKEVKSWEILREDIGEAFAKGQFEQQRQKESINTFWANLDN” is “failed”.
For the sequence “MVEASFGYEDFIVRMATGLLVGALIGIERERAQLVGKSEKSGSIPGFRSMGFMGLYGSATGYVSSYTASQYGVVFAALIAGLGAATITLLTLLFAYTRMIRLRAMGFTTYVVILLTFVAGLMSGMGLILEGVAVGVIGGLLLASKYPVVRMTRSVSYSELIALMEVAALILVLGPAVYYAGGYIPFIDVFQVYIFFTAIVAVSFTSYIASRIWGVRGFVTSIILGSIVNSEAVVASIASRRDIDRGVVFQAVVAALSVMQLRIAGLGLLALLVGGGFPQGEVVLHFRDNILPWLILLALMTIASIVAWASTLALEKVENKGVIPGTPLQWGVAVRGAVAFLLLTLLFDAASRALSGYTGNIAFLTLSIIGGFISANATLLSLAGLLTRLGADTFTVGILGIALGATFNKILYTRAVGAPPETVKEITKATALMSLLPVFFLILFWLLLQTPTG”, the protein production result was “failed”.
The same measure for “MVEGSQEAKVAEILQKMEEMIGEEPKPQKLFSKVAPEWLERQMDERQFVMSLESIPEKYKHLIMIAVAAAVGSKMCTEVFTKIAKRRGVSEREIGEAILVARFALASTIFATVTPALEWLEGGDEE”: “failed”; for “MVEKGKMVKISYDGYVDGKLFDTTNEELAKKEGIYNPAMIYGPVAIFAGEGQVLPGLDEAILEMDVGEEREVVLPPEKAFGKRDPSKIKLIPLSEFTKRGIKPIKGLTITIDGIPGKIVSINSGRVLVDFNHELAGKEVKYRIKIEEVVDDKKNIVKEIVKMYVPRLSDVKVTIRNGTVKIELPEFAPFIPNIQTAKMAIANEILKRLEDAEKVSFVETFERKKETKEENK”: “failed”; for “MVEPMTPRFKYTKASQENIQQLGNILEQCFVMSFGDSEIYVKGIGLENFRVIYREQKVAGGLAILPMGQWWGGQRVPMAGIAAVGIAPEYRGDGAAIALIQHTLQEISEQDIPISVLYPATQRLYRKAGYEQAGSSCVWEIPTDSIQIQHASLPLEPVVLKNNPIFHELYQQQAQLTHGYLDRHPAIWQGLNRTLDTETLYSYLIGDKDKPQGYIIFTQERTRDGSILRIRDWVTLSNPAVQSFWTFIANHRSQIDKVTWKSSVIDALTLLLPEQSATIRSQDRWMLRIVNVCKALEARGYPLGVEAELHLEVQDDLLATNQGKFILSVANGKSEVTKGGKGELQLDIKGLASLYTSLFTPRQLQLTGKLQATETALLKATQIFAGESPWMIDFF”: “not failed”.
The entry for “MVERVASSEVANRLNEWYDTIKRQDIKKAAILKHDLQKAMDDMEEDQNVLLYYNLIDSRYKLLLEQYDESGTILESLKDQTERADTDNLLQYYYYFFSGLYEFNMNNFTHAIRLYHKAENHLTTIPDEIEHAEFHFQLAVAYQSIDQSFFSINHAEKALDIYLKQENYVSRIALTQMIIAANKLDLNQYLAAEKLYKKAILIAVDSNQTFIELLGYYNLGLCYEVQEKLEQARDCFEKALDFNFPQENKKETYLRIKYMLARVLFKMGFLQEGVKWFEDAVQLANETNDKIYQVKLQIIHAVYFDQKELSIDEGLKVLKEQSLWHDVEDLSFIAARFYKKEGFYQLASKYYEEGLNAQQKIPSLYEEVGSA” is “failed”.
“MVESKRTWKEKVHVESQVEERLRKNLTLKSREATKLQKKALKTTKKEFKLSKKNYKQSLKKHKLTLKTGKEPLSINHLLDKKKFVEQKKRKKAQKIAYKRTKKVDETRVVNQVKRETKEGLKREATQKVRTTLTQEDTLNEAMTLYEKTQQAKFNMRTALKTGKTVKNLSVKTAKDTYGLGNRLFNFSRGRGFQRTPKDFTLKKQLMKQLRNRAMRFKAAKEAKKAEQGIGLIRSFFNGQKTLGKVAALILKNPISWVVLLVLFLVFLLSGVASSTQKPAIVQEEEDLTASWTYFTKLDAQHTDDNNLFYSNIDDVLFYMNYRYDDFKLLDMDSTGTKNFETILSELWTALNGKKPDYQLKTMQSLETDKKSSYFIEEEQAKHYQEIKKELGYQTLDDLLSFPVKTDALIVNKRYGYDKSKEKLTLYKGIDVLIEDNQPFHSPMNGQIVSVPDTETLVIEKEKVARLTIRGVNTLRLTKGMDVEEGTFLGNTKNSTVTFQYEKYKKETKDWFFVNPAFYFPRVTYTQTTLLGSAEFSPGASVEKRAQAVYDYLSKKGYTKEGISAILGNFSVESGINPKRAEGDYLNPPVGAHGNSWDEPSWLAMGGPQIYGGRFPNILHRGLGLGQWTDTADGGRRHTLLLDYAKGKNKKWYDLQLQLDFIFDGDAPGSRTAADNVARSKVAATIPELTTYYLTVWEGNPGDKLGERIQAAQNWFTFFSRSGTPIGGSGSEVFAQYKEKMQPLPTDRETKAGQGWPGNAYAPGNCTWYVFNRFAQLGKSIYPTMGNANQWVHNYSQTPGATLESAPKKGDAVIFTNGVAGSSTQYGHVAYVEHVNSDGSFVISEMNVSGEYSMNWRVLKKEAGEYFMRLN”: the protein production entry was “failed”.
For the sequence “MVFFHKKIILNFIYSLMVAFLSHGVLLKADGMAKKQTLLVGERLVWDKLTLLGFLEKNHIPQKLYYNLSSQDKELSAEIQSNVTYYTLRDANNTLIQALIPISQDLQIHIYKKGEDYFLDFIPIIFTRKEKTLLLSLQTSPYQDIIKATNDPLLANQLMNAYKKSVPFKRLVKNDKIAIVYTRDYRVGQAFGQPTIKMAMVSSRSNQYYLFSHSNGHYYDSKAQEVAGFLLETPVKYTRISSPFSYGRFHPVLKVRRPHYGVDYAAKHGSLIHSASDGRVGFMGVKAGYGKVVEIHLNELRLVYAHMSAFANGLKKGSFVKKGQIIGRVGSTGLSTGPHLHFGVYKNSRPINPLGYIRTAKSKLHGKQREVFLEKAQRSKQKLEELLKTHSFEKNSFYLLEGF”, the protein production result is recorded as “failed”.
On to “MVFIDNLGLMLFILPLVSVLIAYTTVQAFIGFRKTGYEAIKRSLDDSILPAAILGTIIIILSLWGEFSWTLPGSYNILFYDVYLLLGITILSYSVTVYMGKRLQSTGIFALFVGLITIYYGASGYNLGLTKEPLALLALYTTYGIAGILGYPVTLALDRLRDQQGVKDPKLEGWMYAFFILFWIFVIIAGIIGAFIAVETIPAHLAHPP”, for which the protein production result is “failed”.
In the case of “MVFIWSLIFIVILSVVFTTNIKKNYKGWYALASFISILVSIYEVMRIVSHPKLNGVILSIEQAFMKGNVAIAFFILVMFAGALSTKQVIGKKLMSIRAELAILGSILILPHGIIYFVRFLIIKLPKILNGKANATLYLIYISIGIIAFIIMIPLFITSFKSVRKRLGGFRWKKLHRWSYVFYCLIYLHIILALLNGKINFIKIILYTFIFMVYTVMKFIKHRNIKLRRKS”, the protein production entry is given as “failed”.
Consider “MVFNLVVNIIGIVVFIAIAYLFSKQKHAINWRSVGVMLVLEVLLAWFLTGSQVGVDAVKAAADGFTWLVNVSYDGIAFALASWVNVKSMDFVTSSLLPILLIVPLFDILTYIGVLPWIIKWVGRGLAYITGQPKFESFFVVEMMFLGNTEALAVSQLQLKQMKAQRNLTIAMMSMSCVTASILGAYIKMMPGQFILTAVPMNVLNAAIIAAILNPVEVKPEEDTIAKISGSAAVEETTATTETSGSEELANEQVKEAKPAREPFFSFLGDSILGAGRLILIIAANVIAFVALAKLIDKLLGLINSNLSLENIFGVVMFPFAWLLGFNPSDAFQMASYMGTKLVTNEFVVMGEVSSKVNDFAPHFRAVLTVFLTSFANFSTIGMIIGAFKGIVDREKNDLISRNVGYMLLSGILVSLLSAGVVGLFVW”, for which the protein production result is listed as “failed”.
With “MVGEVVLVNAYKKFFREYFNFKGKTSRLDFWYVILSLLILSIIPTAILSYLIFGSLMSISGGGNVQEIMEITFLNIPIFIIGIIYLFLFVPVITMTVRRWRDVGLRASGIILIFCLLVLIVILGFIIHLKQNIIIDFLIVISSSMFLITLMPSQICCTNSKNRISQFFFCSKGER”, the protein production result is given as “failed”.
